Experiment [1] concerns the target T1, human CD55 (human, UniProt P08174 35-353, limits assumed).
T1 construct: also called Decay-Accelerating Factor; DAF
T1 sequence (looked up): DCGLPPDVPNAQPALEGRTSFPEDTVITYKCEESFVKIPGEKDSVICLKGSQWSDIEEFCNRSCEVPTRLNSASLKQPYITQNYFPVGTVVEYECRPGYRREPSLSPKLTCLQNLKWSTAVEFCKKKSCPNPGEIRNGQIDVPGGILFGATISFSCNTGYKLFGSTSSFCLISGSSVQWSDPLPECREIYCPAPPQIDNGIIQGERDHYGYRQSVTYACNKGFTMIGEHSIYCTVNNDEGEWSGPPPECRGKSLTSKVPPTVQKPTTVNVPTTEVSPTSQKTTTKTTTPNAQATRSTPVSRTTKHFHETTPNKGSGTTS
As to the kind of experiment: ELISA on human CD55, HRP-anti-mouse secondary, A450; left panel 'Binding to human CD55 by ELISA', EC50 table below the graph.
Description: (§1) EC₅₀ values were obtained by fitting to a sigmoid non-linear equation, using PRISM. These human antibodies contained mouse IgG2A Fc domains for use in in vivo mouse tumor models and were detected by HRP-anti-mouse secondary antibodies.
as §1

For experiment [2], the target named is T2, mouse CD55 (mouse, UniProt Q61475 35-362, limits assumed).
T2 sequence (looked up): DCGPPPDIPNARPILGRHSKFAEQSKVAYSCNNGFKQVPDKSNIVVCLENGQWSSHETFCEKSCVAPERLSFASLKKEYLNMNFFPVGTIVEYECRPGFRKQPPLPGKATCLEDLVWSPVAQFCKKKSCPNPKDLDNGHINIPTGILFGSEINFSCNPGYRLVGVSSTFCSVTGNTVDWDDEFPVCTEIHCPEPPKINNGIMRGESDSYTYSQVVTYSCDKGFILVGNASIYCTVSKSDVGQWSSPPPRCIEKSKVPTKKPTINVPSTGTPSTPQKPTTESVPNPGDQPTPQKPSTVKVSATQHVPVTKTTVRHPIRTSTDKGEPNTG
Kind of experiment: ELISA on mouse CD55, HRP-anti-mouse secondary, A450; right panel 'Binding to mouse CD55 by ELISA', EC50 table below the graph.
Description: as §1, §1
In general terms: In an ELISA, binding on a coated surface is turned into a signal by an enzyme label.

The target in experiment [3] is T1, human CD55. Kind of experiment: library screen, species specificity summary.
The target in experiment [4] is T2, mouse CD55. As to the kind of experiment: ELISA on mouse CD55, HRP-anti-mouse secondary, A450; right panel 'Binding to mouse CD55 by ELISA'.
Description: as §1, §1

In experiment [5] the target is T3, Plate-bound CD55 (Homo sapiens (Human), UniProt P08174 35-353).
T3 sequence: T1 sequence (looked up)
As to the kind of experiment: competition ELISA on plate-bound CD55, streptavidin-HRP, A450; competitor antibody: None. As to the method:
(§2) FIG. 3: Competition ELISA data for comparing the epitopes of the mouse+human CD55 binding antibodies.
(§3) Comparison of the epitopes of the mouse+human CD55-binding antibodies was performed by competition ELISA.

The target in experiment [6] is T3, Plate-bound CD55. Kind of experiment: competition ELISA; plate-bound CD55 pre-incubated with the unlabeled competitor P5-1J, washed, biotinylated P5-1J titrated, Streptavidin-HRP. On the procedure: as §2, §3
The target of experiment [7] is T3, Plate-bound CD55. Kind of experiment: competition ELISA on plate-bound CD55, streptavidin-HRP, A450; plate pre-incubated with control competitor mIgG2A at 1.0 ug/ml (curve lies on that of None). On the procedure: as §2, §3
Experiment [8] has as its target T3, Plate-bound CD55. Kind of experiment: competition ELISA; plate-bound CD55 pre-incubated with the unlabeled competitor P5-2-2A, washed, biotinylated P5-1J titrated, Streptavidin-HRP. As to the method: as §2, §3
Experiment [9] addresses T3, Plate-bound CD55. Kind of experiment: competition ELISA on plate-bound CD55, streptavidin-HRP, A450; plate pre-incubated with unlabeled competitor P5-1J at 1.0 ug/ml. As to the method:
as §2, §3

For experiment [10], the target named is T3, Plate-bound CD55. As to the kind of experiment: competition ELISA on plate-bound CD55, streptavidin-HRP, A450; plate pre-incubated with unlabeled competitor P5-4 at 1.0 ug/ml. On the procedure: as §2, §3
For experiment [11], the target named is T3, Plate-bound CD55. As to the kind of experiment: competition ELISA on plate-bound CD55, streptavidin-HRP, A450; plate pre-incubated with unlabeled competitor P5-2-2A at 1.0 ug/ml. On the procedure: as §2, §3

Residue numbers refer to the chain shown, from its start.

B1: P5-1 with mouse IgG2A Fc domains (antibody, V domains shown)
VH: EVQLVESGGGLVQPGGSLRLSCAASGFTFSSYYIHWVRQAPGKGLEWVAAISSSSGSTYYADSVKGRFTISADTSKNTAYLQMNSLRAEDTAVYYCARERYFYGDFVFDYWGQGTLVTVSS
VL: DIQMTQSPSSLSASVGDRVTITCRASQSVSSAVAWYQQKPGKAPKLLIYSASSLYSGVPSRFSGSRSGTDFTLTISSLQPEDFATYYCQQYYSSPLTFGQGTKVEIKR
notes: not shown: mouse IgG2A Fc domain
By EC50 is commonly meant the concentration that produces a half-maximal response. A higher EC50 goes with weaker potency. For the molecule B1, the EC50 was 4.27 ng/mL in [1] and 3.46 ng/mL in experiment [2].

B2: P5-3 (antibody, V domains shown)
VH: EVQLVESGGGLVQPGGSLRLSCAASGFTFSSYYIHWVRQAPGKGLEWVAAISSSSGSTYYADSVKGRFTISADTSKNTAYLQMNSLRAEDTAVYYCAREDWHRYERRFYEGFDYWGQGTLVTVSS
VL: B1 VL
Take B2: the binding result in [3] is given as “binds”.

B3: P5-1J with mouse IgG2A Fc domains (antibody, V domains shown)
VH: B1 VH with S31H, Y32H, S53T, S54G, S55G, S57T, Y103N, V107I, F108Y
VL: B1 VL with S94T
notes: as for B1
For B3, the EC50 in [1] worked out at 4.07 ng/mL; in experiment [2] it was 3.21 ng/mL.

B4: P5-4 with mouse IgG2A Fc domains (antibody, V domains shown)
VH: B1 VH with R100D, F102Y, Y103W
VL: B1 VL
notes: as for B1
B4: the EC50 was found to be 3.68 ng/mL in experiment [1] and 22.7 ng/mL in experiment [2].

B5: P5-2 (antibody, V domains shown)
VH: B1 VH with R100V, Y101R, F102I, Y103H, F108L
VL: B1 VL
notes: also called parent Ab P5-2
B5: in experiment [3], the binding result was “binds”.

B6: P5-2-2A with mouse IgG2A Fc domains (antibody, V domains shown)
VH: B1 VH with R100A, Y101R, Y103H, V107I, F108L
VL: B1 VL with S93I, S94T
notes: as for B1
Broadly, the EC50 (read off the curve) is the concentration needed to bring the measured effect to its halfway point. High values mean a need for much substance, low ones an effect from little substance. Regarding B6, in experiment [1], the EC50 turned out to be 4.72 ng/mL. Further, the “EC50 (read off the curve)” value in [4] is roughly 6 ng/mL.

B7: P5-1J (antibody, V domains shown)
VH: B1 VH with S31H, Y32H, S53T, S54G, S55G, S57T, Y103N, V107I, F108Y
VL: B1 VL with S94T
notes: also called biotinylated P5-1J; unlabeled P5-1J
For B7, the EC50 in experiment [5] amounted to 2.13 ng/mL; in experiment [7] it was 1.96 ng/mL; in [9], 108 ng/mL; in [10], 24.1 ng/mL; in [11], 21.4 ng/mL. The “fold shift in EC50” value in experiment [6] is 100 fold; in [8], 20 fold.

The values above are taken from US20220088193A1 (AGONOX, published 2022).
